Measured values as given in patent publication US20200208174.

How the values were obtained:
[1] = molecular target: CD38 TALEN Left (artificial) (UniProt Q56830); assay: cell_activity; conditions: paired with CD38 TALEN Right; simultaneous electroporation with TRAC and CD52 TALEN
[2] = molecular target: CD38 TALEN Right (artificial) (UniProt Q56830); assay: cell_activity; conditions: paired with CD38 TALEN Left; simultaneous electroporation with TRAC and CD52 TALEN

Substance	activity (% CD38-negative cells) [1]	activity (% CD38-negative cells) [2]
CD38 left half-site	66.1	
CD38 right half-site		66.1
